Source: the supplement of paper PMC10201428
± gives the standard deviation of the averaged measurements.

Legend:
[1] = tested on: VchCAST RNA-guided transposition machinery (E. coli BL21(DE3) host, lacZ target); experiment: relative integration efficiency (T-LR orientation) vs wild-type transposon end (log2 (normalized fold change)); transposon end mutated: right end (5 bp flank + 75 bp right end); higher = more efficient transposition
In short: (§1)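 Barcoded pools of 1549 left-end or 1849 right-end transposon variants were cloned into a pUC57 mini-transposon donor. Each pool was co-transformed with a T7-driven effector plasmid (CRISPR array, tniQ-cas8-cas7-cas6, tnsA-tnsB-tnsC) into E. coli BL21(DE3) and plated with 0.1 mM IPTG at 37°C for 18 h. Input plasmids and genomic integration junctions were PCR-amplified and Illumina-sequenced, with two biological output replicates and four wild-type barcodes as reference. Relative integration efficiency is output/input barcode abundance fold change, normalised to wild-type barcodes and log-transformed.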

[2] = tested on: VchCAST RNA-guided transposition machinery (E. coli BL21(DE3) host, lacZ target); experiment: relative integration efficiency (T-RL orientation) vs wild-type transposon end (log2 (normalized fold change)); transposon end mutated: right end (5 bp flank + 75 bp right end); higher = more efficient transposition
In short: as §1

Sequence	relative integration efficiency (log2) [1]	relative integration efficiency (log2) [2]
ACATTTGTTGATACAACCATAAAATGATAATTACACCCATAAATTGATAATTATCACACCCATAAATTGATATTGCCTAGGATCATAGTCAGACCAACATTGCTACGACCCGTATTCGCACCGACAC	0.23 ± 0.42	0.0464 ± 0.076
ACATTTGTTGATACAACCATAAAATGATAATTACACCCATAAATTGATAATTATCACACCCATAAATTGATATTGCCTCAACCATAAAATGATAATTACTGATCATAGTCAGACCAAGCACCGACAC	-1.08 ± 0.72	-0.275 ± 0.21
ACATTTGTTGATACAACCATAAAATGATAATTACACCCATAAATTGATAATTATCACACCCATAAATTGATATTGCCTCCAACCATAAAATGATAATTATGATCATAGTCAGACCAAGCACCGACAC	-0.77 ± 0.082	-0.0389 ± 0.26
ACATTTGTTGATACAACCATAAAATGATAATTACACCCATAAATTGATAATTATCACACCCATAAATTGATATTGCCTCTAAAGTGTACAACACTTGAGAAAGTTTACTACAGGTATGCACCGACAC	0.483 ± 0.017	-0.293 ± 0.28
ACATTTGTTGATACAACCATAAAATGATAATTACACCCATAAATTGATAATTATCACACCCATAAATTGATATTGCCTCTACATGAATTCAAAGTTATGTAATATAGTACTATGTACGCACCGACAC	0.172 ± 0.19	-0.373 ± 0.31
ACATTTGTTGATACAACCATAAAATGATAATTACACCCATAAATTGATAATTATCACACCCATAAATTGATATTGCCTCTAGCTTGATCTACATTGGATTGCCATTCTCTCACAGTAGCACCGACAC	0.213 ± 0.1	0.0681 ± 0.22
ACATTTGTTGATACAACCATAAAATGATAATTACACCCATAAATTGATAATTATCACACCCATAAATTGATATTGCCTCTATGTACACTGATGAGTTATTACACCTCAAGTTCAATGGCACCGACAC	-0.281 ± 0.31	-0.228 ± 0.28
ACATTTGTTGATACAACCATAAAATGATAATTACACCCATAAATTGATAATTATCACACCCATAAATTGATATTGCCTCTCAACCATAAAATGATAATTAGATCATAGTCAGACCAAGCACCGACAC	0.308 ± 0.018	-0.0518 ± 0.26
ACATTTGTTGATACAACCATAAAATGATAATTACACCCATAAATTGATAATTATCACACCCATAAATTGATATTGCCTCTCAGACCACATAGCTGCCATGTCCTGATCGGACGGACCGCACCGACAC	0.624 ± 0.19	0.787 ± 0.22
ACATTTGTTGATACAACCATAAAATGATAATTACACCCATAAATTGATAATTATCACACCCATAAATTGATATTGCCTCTCCGACCCGGAAGAGGGCGCCTAGAATTGGGAGTGGTCGCACCGACAC	0.134 ± 0.075	0.139 ± 0.13
ACATTTGTTGATACAACCATAAAATGATAATTACACCCATAAATTGATAATTATCACACCCATAAATTGATATTGCCTCTCGCGAGAGGCCGGCAGCCGTCTGGCGTCGGGTGGCGGGCACCGACAC	0.646 ± 0.53	0.713 ± 0.16
ACATTTGTTGATACAACCATAAAATGATAATTACACCCATAAATTGATAATTATCACACCCATAAATTGATATTGCCTCTGACAACCATAAAATGATAATTATCATAGTCAGACCAAGCACCGACAC	-0.0996 ± 0.32	-0.213 ± 0.28
ACATTTGTTGATACAACCATAAAATGATAATTACACCCATAAATTGATAATTATCACACCCATAAATTGATATTGCCTCTGACTTAAACAAAATATATCTTGCCCGCCTTACAAATAGCACCGACAC	0.774 ± 0.22	0.417 ± 0.32
ACATTTGTTGATACAACCATAAAATGATAATTACACCCATAAATTGATAATTATCACACCCATAAATTGATATTGCCTCTGATAACTTCGTATAAAGTATCCTATACGAAGTTATTCGCACCGACAC	0.85 ± 0.066	-0.255 ± 0.26
ACATTTGTTGATACAACCATAAAATGATAATTACACCCATAAATTGATAATTATCACACCCATAAATTGATATTGCCTCTGATAACTTCGTATAAGGTATACTATACGAAGTTATTCGCACCGACAC	1.55 ± 0.38	-0.433 ± 0.28
ACATTTGTTGATACAACCATAAAATGATAATTACACCCATAAATTGATAATTATCACACCCATAAATTGATATTGCCTCTGATAACTTCGTATAATGTATACTATACGAAGTTATTCGCACCGACAC	1.63 ± 0.07	-1.3 ± 0.39

Sequence	relative integration efficiency (log2) [1]	relative integration efficiency (log2) [2]
ACATTTGTTGATACAACCATAAAATGATAATTACACCCATAAATTGATAATTATCACACCCATAAATTGATATTGCCTCTGATAACTTCGTATAATGTATCGTATACGAACGGTATCGCACCGACAC	-0.264 ± 0.53	-0.379 ± 0.29
ACATTTGTTGATACAACCATAAAATGATAATTACACCCATAAATTGATAATTATCACACCCATAAATTGATATTGCCTCTGATAACTTCGTATAATGTATGCTATACGAAGTTATTCGCACCGACAC	0.719 ± 0.031	-0.484 ± 0.19
ACATTTGTTGATACAACCATAAAATGATAATTACACCCATAAATTGATAATTATCACACCCATAAATTGATATTGCCTCTGATAACTTCGTATAGCATACATTATACGAAGTTATTCGCACCGACAC	2.48 ± 0.26	-3.13 ± 0.076
ACATTTGTTGATACAACCATAAAATGATAATTACACCCATAAATTGATAATTATCACACCCATAAATTGATATTGCCTCTGATAACTTCGTATAGGATACTTTATACGAAGTTATTCGCACCGACAC	1.19 ± 0.28	-0.663 ± 0.27
ACATTTGTTGATACAACCATAAAATGATAATTACACCCATAAATTGATAATTATCACACCCATAAATTGATATTGCCTCTGATAACTTCGTATAGTATACATTATACGAAGTTATTCGCACCGACAC	2.27 ± 0.2	-2.13 ± 0.21
ACATTTGTTGATACAACCATAAAATGATAATTACACCCATAAATTGATAATTATCACACCCATAAATTGATATTGCCTCTGATAACTTCGTATAGTATACCTTATACGAAGTTATTCGCACCGACAC	1.034 ± 0.0024	-0.958 ± 0.26
ACATTTGTTGATACAACCATAAAATGATAATTACACCCATAAATTGATAATTATCACACCCATAAATTGATATTGCCTCTGATAACTTGGTATAGCATACATTATACGAACGGTATCGCACCGACAC	0.663 ± 0.24	-0.811 ± 0.36
ACATTTGTTGATACAACCATAAAATGATAATTACACCCATAAATTGATAATTATCACACCCATAAATTGATATTGCCTCTGATAGTACTGCGCGCCTGAATTCATCGTTAAATCGTCGCACCGACAC	0.249 ± 0.17	0.0579 ± 0.2
ACATTTGTTGATACAACCATAAAATGATAATTACACCCATAAATTGATAATTATCACACCCATAAATTGATATTGCCTCTGATCAAAATGTGAGCGAGTAACAACCTAGTCAGACCAGCACCGACAC	-0.0747 ± 0.17	-0.102 ± 0.08
ACATTTGTTGATACAACCATAAAATGATAATTACACCCATAAATTGATAATTATCACACCCATAAATTGATATTGCCTCTGATCAAATTGTGAGCGGATAACAATTTAGTCAGACCAGCACCGACAC	0.00708 ± 0.62	-0.232 ± 0.12
ACATTTGTTGATACAACCATAAAATGATAATTACACCCATAAATTGATAATTATCACACCCATAAATTGATATTGCCTCTGATCAACCATAAAATGATAATTACATAGTCAGACCAAGCACCGACAC	0.401 ± 0.26	0.875 ± 0.21
ACATTTGTTGATACAACCATAAAATGATAATTACACCCATAAATTGATAATTATCACACCCATAAATTGATATTGCCTCTGATCAATATGTAACCAAAAGTAAAATAGTCAGACCAAGCACCGACAC	0.023 ± 0.042	-0.295 ± 0.29
ACATTTGTTGATACAACCATAAAATGATAATTACACCCATAAATTGATAATTATCACACCCATAAATTGATATTGCCTCTGATCACAACCATAAAATGATAATTATAGTCAGACCAAGCACCGACAC	-0.402 ± 0.11	-0.0149 ± 0.23
ACATTTGTTGATACAACCATAAAATGATAATTACACCCATAAATTGATAATTATCACACCCATAAATTGATATTGCCTCTGATCAGGAATTGTGAGCGGATAACAATTTAGTCAGACGCACCGACAC	0.397 ± 0.067	0.138 ± 0.16
ACATTTGTTGATACAACCATAAAATGATAATTACACCCATAAATTGATAATTATCACACCCATAAATTGATATTGCCTCTGATCAGGCAGTGAGCGCAACGCAATTTAGTCAGACCAGCACCGACAC	-0.287 ± 0.16	-0.283 ± 0.16
ACATTTGTTGATACAACCATAAAATGATAATTACACCCATAAATTGATAATTATCACACCCATAAATTGATATTGCCTCTGATCATAAATATATAAATTAATTATTAAATTAGTCAGGCACCGACAC	1.54 ± 0.18	1.34 ± 0.21
